Drawing on article PMC12636033, “Chemical Engineering of Transcription Factors Uncovered Cell-Permeable μMax Modulators”, this text covers binding signal for 23 molecules.

B1: dBr_Jan07_39189 (dsDNA)
DNA 1: GGCTTGCATTGTTGGGCCCACGTGTTGATTGTCTAAGTCTGTGTTCCGTTGTCCGTGCTG
DNA 2: CAGCACGGACAACGGAACACAGACTTAGACAATCAACACGTGGGCCCAACAATGCAAGCC
B2: dBr_Jan07_03225 (dsDNA)
DNA 1: TTCTATCCCTAATCTCCGCGTGGCTACCCCTTCAAGGTCTGTGTTCCGTTGTCCGTGCTG
DNA 2: CAGCACGGACAACGGAACACAGACCTTGAAGGGGTAGCCACGCGGAGATTAGGGATAGAA
B3: dBr_Jan07_18904 (dsDNA)
DNA 1: CCCGGATAATATTTCGGCTTCAAGAATCACGTGGAAGTCTGTGTTCCGTTGTCCGTGCTG
DNA 2: CAGCACGGACAACGGAACACAGACTTCCACGTGATTCTTGAAGCCGAAATATTATCCGGG
B4: dBr_Jan07_27092 (dsDNA)
DNA 1: GTTTAGAGGCTGTTTGCTGTCGCCCTACAACCACGTGTCTGTGTTCCGTTGTCCGTGCTG
DNA 2: CAGCACGGACAACGGAACACAGACACGTGGTTGTAGGGCGACAGCAAACAGCCTCTAAAC
B5: dBr_Jan07_00940 (dsDNA)
DNA 1: GGATATGGCCCTCCCTACGAACACGTGGAGTTAGGCGTCTGTGTTCCGTTGTCCGTGCTG
DNA 2: CAGCACGGACAACGGAACACAGACGCCTAACTCCACGTGTTCGTAGGGAGGGCCATATCC
B6: dBr_Jan07_07207 (dsDNA)
DNA 1: TCAGCCGCGTGGCACAATGTCCACAGGTAGGGTACAGTCTGTGTTCCGTTGTCCGTGCTG
DNA 2: CAGCACGGACAACGGAACACAGACTGTACCCTACCTGTGGACATTGTGCCACGCGGCTGA
B7: dBr_Jan07_11943 (dsDNA)
DNA 1: GGGCCGGTAAACGGACTGGTACGATGAAGCGCACGTGTCTGTGTTCCGTTGTCCGTGCTG
DNA 2: CAGCACGGACAACGGAACACAGACACGTGCGCTTCATCGTACCAGTCCGTTTACCGGCCC
B8: dBr_Jan07_03400 (dsDNA)
DNA 1: ACGTCGGCTATGATTTCACGCTATTCTAAGACACGTGTCTGTGTTCCGTTGTCCGTGCTG
DNA 2: CAGCACGGACAACGGAACACAGACACGTGTCTTAGAATAGCGTGAAATCATAGCCGACGT
B9: dBr_Jan07_13408 (dsDNA)
DNA 1: CCGCGCGCAGGCACTTAGGGTACCTGCTGTCCACGTGTCTGTGTTCCGTTGTCCGTGCTG
DNA 2: CAGCACGGACAACGGAACACAGACACGTGGACAGCAGGTACCCTAAGTGCCTGCGCGCGG
B10: dBr_Jan07_34584 (dsDNA)
DNA 1: ATTGCCGCACCTGATGCATCGCCACGTGTTATAATCGTCTGTGTTCCGTTGTCCGTGCTG
DNA 2: CAGCACGGACAACGGAACACAGACGATTATAACACGTGGCGATGCATCAGGTGCGGCAAT
B11: dBr_Jan07_32554 (dsDNA)
DNA 1: CGACGTTGTCTGACGAATAATGCCGAGCGGACACGTGTCTGTGTTCCGTTGTCCGTGCTG
DNA 2: CAGCACGGACAACGGAACACAGACACGTGTCCGCTCGGCATTATTCGTCAGACAACGTCG
B12: dBr_Jan07_28790 (dsDNA)
DNA 1: CTATTCCGATGCCATAAAACTTTCCACTCCACGTGTGTCTGTGTTCCGTTGTCCGTGCTG
DNA 2: CAGCACGGACAACGGAACACAGACACACGTGGAGTGGAAAGTTTTATGGCATCGGAATAG
B13: dBr_Jan07_01481 (dsDNA)
DNA 1: CCGCCAGCATTTCCTGCTTTGCACGTGTAAGATACCGTCTGTGTTCCGTTGTCCGTGCTG
DNA 2: CAGCACGGACAACGGAACACAGACGGTATCTTACACGTGCAAAGCAGGAAATGCTGGCGG
B14: dBr_Jan07_35732 (dsDNA)
DNA 1: TAGTTGTATCTTGATCGCCGATTCCCCATGCCACGTGTCTGTGTTCCGTTGTCCGTGCTG
DNA 2: CAGCACGGACAACGGAACACAGACACGTGGCATGGGGAATCGGCGATCAAGATACAACTA
B15: dBr_Jan07_07176 (dsDNA)
DNA 1: TATGCGTTGGCCATCTTAATTCCACGTGGTGTCCTCGTCTGTGTTCCGTTGTCCGTGCTG
DNA 2: CAGCACGGACAACGGAACACAGACGAGGACACCACGTGGAATTAAGATGGCCAACGCATA
B16: dBr_Jan07_01937 (dsDNA)
DNA 1: AGCTTTTTATCTCTGTGGGCGGGTAACAACCATGTGGTCTGTGTTCCGTTGTCCGTGCTG
DNA 2: CAGCACGGACAACGGAACACAGACCACATGGTTGTTACCCGCCCACAGAGATAAAAAGCT
B17: dBr_Jan07_39019 (dsDNA)
DNA 1: TCCTTCCCGACGGACAGTGCAATCTGATTATCACGTGTCTGTGTTCCGTTGTCCGTGCTG
DNA 2: CAGCACGGACAACGGAACACAGACACGTGATAATCAGATTGCACTGTCCGTCGGGAAGGA
B18: dBr_Jan07_19752 (dsDNA)
DNA 1: TAAGCTTCGGTTCTCGTTCGGTACAACACGTGTATGGTCTGTGTTCCGTTGTCCGTGCTG
DNA 2: CAGCACGGACAACGGAACACAGACCATACACGTGTTGTACCGAACGAGAACCGAAGCTTA
B19: dBr_Jan07_36232 (dsDNA)
DNA 1: CCATGCCAACTAGGCGCACGTGATTGTTCGAGAACTGTCTGTGTTCCGTTGTCCGTGCTG
DNA 2: CAGCACGGACAACGGAACACAGACAGTTCTCGAACAATCACGTGCGCCTAGTTGGCATGG
B20: dBr_Jan07_16225 (dsDNA)
DNA 1: ACATTCCTAGCTATTACTTGGTAGCTCTCAGCACGTGTCTGTGTTCCGTTGTCCGTGCTG
DNA 2: CAGCACGGACAACGGAACACAGACACGTGCTGAGAGCTACCAAGTAATAGCTAGGAATGT
B21: dBr_Jan07_12609 (dsDNA)
DNA 1: TGATAAGGATCTACTTCAAGAGCACGTGTCATCTATGTCTGTGTTCCGTTGTCCGTGCTG
DNA 2: CAGCACGGACAACGGAACACAGACATAGATGACACGTGCTCTTGAAGTAGATCCTTATCA
B22: dBr_Jan07_09790 (dsDNA)
DNA 1: ATTCTAATGATTGCGTATACACGTGTCTTGAATTGGGTCTGTGTTCCGTTGTCCGTGCTG
DNA 2: CAGCACGGACAACGGAACACAGACCCAATTCAAGACACGTGTATACGCAATCATTAGAAT
B23: dBr_Jan07_25672 (dsDNA)
DNA 1: TCACGCACCCCGCAAGCGCAACCACGTGGTAAGGGTGTCTGTGTTCCGTTGTCCGTGCTG
DNA 2: CAGCACGGACAACGGAACACAGACACCCTTACCACGTGGTTGCGCTTGCGGGGTGCGTGA

The target of the data set is WT Max (Homo sapiens, UniProt P61244-2 13-93, M65Nle, norleucine written as M; other non-natural residues written as X). The experiment in a line: PBM; 50-200 nM protein; PBS, 2% milk, BSA, salmon testes DNA, 0.02% Triton X-100. Conditions: chain copies: 2; label: surface-attached array probe.
WT Max, sequence (P61244 other isoform, or with tags, fused parts or gaps M65Nle): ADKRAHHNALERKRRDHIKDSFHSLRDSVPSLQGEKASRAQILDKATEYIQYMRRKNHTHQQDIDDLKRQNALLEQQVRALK
As to B1, the binding signal was 4.2 robust z of log adjusted intensity (ours), mean of two arrays.

Take B2: the binding signal was 4.25 robust z of log adjusted intensity (ours), mean of two arrays.

In the case of B3, the binding signal is 4.33 robust z of log adjusted intensity (ours), mean of two arrays.

Turning to B4, the binding signal was 4.94 robust z of log adjusted intensity (ours), mean of two arrays.

Take B5: the binding signal is 4.33 robust z of log adjusted intensity (ours), mean of two arrays.

B6: the binding signal is 5.41 robust z of log adjusted intensity (ours), mean of two arrays.

Consider B7, for which the binding signal is 4.72 robust z of log adjusted intensity (ours), mean of two arrays.

As for B8, the binding signal was 4.73 robust z of log adjusted intensity (ours), mean of two arrays.

Turning to B9, the binding signal is 4.13 robust z of log adjusted intensity (ours), mean of two arrays.

For the molecule B10, the binding signal is 6.19 robust z of log adjusted intensity (ours), mean of two arrays.

Take B11: the binding signal was 4.1 robust z of log adjusted intensity (ours), mean of two arrays.

On to B12, for which the binding signal is 4.91 robust z of log adjusted intensity (ours), mean of two arrays.

B13: the binding signal was 4.74 robust z of log adjusted intensity (ours), mean of two arrays.

As for B14, the binding signal is 4.37 robust z of log adjusted intensity (ours), mean of two arrays.

Consider B15, for which the binding signal was 4.6 robust z of log adjusted intensity (ours), mean of two arrays.

For B16, the binding signal is 4.33 robust z of log adjusted intensity (ours), mean of two arrays.

As for B17, the binding signal was 4.91 robust z of log adjusted intensity (ours), mean of two arrays.

In the case of B18, the binding signal was 4.26 robust z of log adjusted intensity (ours), mean of two arrays.

Consider B19, for which the binding signal is 4.03 robust z of log adjusted intensity (ours), mean of two arrays.

B20: the binding signal is 4.26 robust z of log adjusted intensity (ours), mean of two arrays.

On to B21, for which the binding signal was 4.35 robust z of log adjusted intensity (ours), mean of two arrays.

B22: the binding signal was 4.37 robust z of log adjusted intensity (ours), mean of two arrays.

As to B23, the binding signal is 6.01 robust z of log adjusted intensity (ours), mean of two arrays.
